Reference: patent US20120316324A1 (UCB, published 2012)

Legend:
hIL13 [1] = molecular target: T1, hIL13 (human, UniProt P35225 35-146, limits assumed); assay: SPR Biacore 3000, construct captured, 20 nM hIL13 injected
T1 construct: also called human IL-13

human serum albumin = molecular target: T2, human serum albumin (human, UniProt P02768 25-609); assay: SPR (Biacore 3000), construct captured by anti human CH1 antibody on CM5 chip, HSA as analyte
T2 construct: also called HSA; HumanSA

hIL13 [2] = molecular target: T1, hIL13; assay: SPR (Biacore 3000), construct captured by anti human CH1 antibody on CM5 chip, hIL13 as analyte (single concentration 20 nM)

B1: 645Fv-652Fab (L-3xG4S, H-3xG4S) (bispecific antibody, V domains shown)
VH: EVQLLESGGGLVQPGGSLRLSCAVSGIDLSNYAINWVRQAPGKGLEWIGIIWASGTTFYATWAKGRFTISRDSTTVYLQMNSLRAEDTAVYYCARTVPGYSTAPYFDLWGQGTLVTVSS
VL: DIVMTQSPSSVSASVGDRVTITCQSSPSVWSNFLSWYQQKPGKAPKLLIYEASKLTSGVPSRFKGSGSGTDFTLTISSLQPEDFATYYCGGGYSSISDTTFGGGTKVEIK
B1 was tested, and the Kd (hIL13 [1]) was about 100 pM, the Kd (human serum albumin) was 1220 pM and the koff (human serum albumin) was 0.000311 s⁻¹. The kon (human serum albumin) was 255000 M⁻¹ s⁻¹, the Kd (hIL13 [2]) was 126 pM and the koff (hIL13 [2]) was 0.000177 s⁻¹. It also gave a kon (hIL13 [2]) of 1.4e+06 M⁻¹ s⁻¹.
